Results on 20 sequences are retold here after the DeepSol protein solubility set.

The series is described as follows: soluble on expression in E. coli; label from the status in PepcDB or PDB records.
As for “MAEQRFCVDYAKRGTAGCKKCKEKIVKGVCRIGKVVPNPFSESGGDMKEWYHIKCMFEKLERARATTKKIEDLTELEGWEELEDNEKEQITQHIADLSSKAAGTPKKKAVVQAKLTT”, the “soluble on expression in E. coli” value is listed as “soluble”.

Regarding “MAERAALEELVKLQGERVRGLKQQKASAELIEEEVAKLLKLKAQLGPDESKQKFVLKTPKGTRDYSPRQMAVREKVFDVIIRCFKRHGAEVIDTPVFELKETLMGKYGEDSKLIYDLKDQGGELLSLRYDLTVPFARYLAMNKLTNIKRYHIAKVYRRDNPAMTRGRYREFYQCDFDIAGNFDPMIPDAECLKIMCEILSSLQIGDFLVKVNDRRILDGMFAICGVSDSKFRTICSSVDKLDKVSWEEVKNEMVGEKGLAPEVADRIGDYVQQHGGVSLVEQLLQDPKLSQNKQALEGLGDLKLLFEYLTLFGIDDKISFDLSLARGLDYYTGVIYEAVLLQTPAQAGEEPLGVGSVAAGGRYDGLVGMFDPKGRKVPCVGLSIGVERIFSIVEQRLEALEEKIRTTETQVLVASAQKKLLEERLKLVSELWDAGIKAELLYKKNPKLLNQLQYCEEAGIPLVAIIGEQELKDGVIKLRSVTSREEVDVRREDLVEEIKRRTGQPLCIC”, the “soluble on expression in E. coli” value is listed as “soluble”. The entry for “MAETNKGIEEEVASAFVNHYYHLFDNDRSSLSSLYNPTSLLTFEGQTIYGVDNISNKLKQLPFDQCHHLISTVDSQPSSMAGGCGGILVFVSGSIQLHGEDHPLRFSQVYLLSICNRFEGFIWLKQS” is “not soluble”; for “MAETVESSLAKSHIEGSFTNVWKDDKTLDWYANYEGILWKATGVVVITGDETQVYAIWVPVGLAIPENEGGGSEGGGSEGGGSEGGGTKPPEYGDTPIPGYIYINPLDGTYPPGTEQNPANPNPSLEESHPLNTFMFQGNRFRNRQGALTVYTGTVTQGTDPVKTYYQYTPVSSKAMYDAYWNGKFRDVAFHSGFNEDPLVAEYQGQLSYLPQPPVNAPSGHHHHHH” it is “soluble”. With “MAFEGLADRLQQTMQKIRGKGKVSEADVKEMMREVRLALLEADVNFKVVKDFVKRVSERAVGQDVMKSLTPGQQVIKVVQEELTELMGGEQSKIAIANKPPTVIMMVGLQGAGKTTTTGKLANLLRKKHNRKPMLVAADIYRPAAIKQLETLGKQLDMPVFSLGDQVSPVEIAKQAIAKAKEDHHDYVLIDTAGHLHIDEELMDELAKVKEVAKPDEIFLVVDAMTGQDAVNVAQSFHEQLGLTGVVLTKLDGDTRGGAALSIKAVTNTPIKFAGMGEKLDALEAFHPERMASRILGMGDVLTLIEKAQATVDEEKAKELEQKMRTLSFTLDDFLEQLGQVRQLGPLDELLGMLPGANKIKGLKNAQVDEKQIGHIEAIIRSMTKLEREQPEIINASRKKRIAKGSGTTVQEINRLIKQFDDMKKMMKTMTGMQKGKKKGLGGLKFPFM”, the “soluble on expression in E. coli” value is given as “not soluble”. The entry for “MAFIGRDDDLKQLQECFTERRAQLVFVYGRRRVGKTETLIQLAKDKETLFFAAQNATKDEQLASFSRLMFEAGAPGKDYLSQYPSWERALTELTRLPEPSDGGRRLVIFDEFPYLVKSDPSLPSVLQNLWDHTLRHANLMIVICGSAMSFIEKELLGEKSPLYGRATGILKMLPMPYWDAAQFFPNYSGEDKALAYAILGGIPRYLEEFDPDETIDANVKRHILRRIAPLYSEVEFLLHEELRETAKYNSVIRAIALGATSLNEIATHTMMANATVSSYLANLMELGIVEREFPVTAKPKERAKGSRGLYQLSDNFFRFWYSFVFPYRSELERGDVEGVYERHIKPVLHDFAGKPFEGLCREWMWRESAAGRLPFRARAVGRWWDRQDEIDVMAVDNASDAAIVGECKFRNAPVDRSVLNLLRDRAARTGIGQRTYLLFSLGGFDQSLVDDAAASQSDVQLVGIDELFHELEHHHHHH” is “not soluble”. To “MAGAGMYGDCSLAATLSYGAVLEPYLHPKPGGVTPYASEGGKSFGDFVLHATLSSRLLAWACLKAWKNGPIGVIASVKERYLREVVPRFKGNIAYGTFMLMAPLAVAIALSKSSEPEELVTTARDTIYCCTGRRESLLHYKILRRLSPSHLGRYRGELPDVASGGERDIPPYPLLLKLNSWDMVHRELAKGYPITLEAYRHSLNRVKEGRSVEEALLEALLKVLAEHGDTLIFQKYGGRAFKMAREEARVAFHVSERWGVRHAITWLERLWRGREWNPGAALDIVAVASGLLLITISRDASS” belongs “not soluble”; to “MAGDPMIRKPAVAGYFYPSNRNELLSLISSFHVQQSEVSCQPIGVVVPHAGIVYSGRTAMYSYNALRNSSIRDFIIIGPNHRPMTPYASIFPSGSWETPLGNAIINEELASELYKNSQYIVKDEESHSVEHSIEVQIPFLQYMFGNSFTFVPVILGDQEKVVANDIASALMRLSKPYILIASSDFTHYERSDIVERKDMDLISRIVDLDIDGFYDTIERENVTACGYGAIAILMIIAKKIGAKISLLNHSNSGDVTNDYDEVVGYSSIVACRQILEHHHHHH”, “not soluble”. Regarding “MAGDPMKSPCILLIIVCTLSLTGCASTKQADSDSSLGKAQQTLDSLYQHYSAKDSYLLRENYPFNEQYKVTYLASENQTNMPNQFSYLWPYSGTFSAVNSLLEATHDKKYQQLLEKQVLPGLEEYFDTERTPIAYSSYIRTAPTSDRFYDDNIWVGIDFIDIYQITKEKKYLDKAQLIWNFIESGTDSLLGDGIYWCEQKKESKNTCSNAPGSVFALKLFKATNDSLYFKRGKELYKWTQKNLQDSTDYLYFDNIRLDGKIGKAKFAYNSGQMMQSAALLYQLTKNPDYLKDAQSIAKECYNYFFTDFTTDTGESLKMLKQGNIWFTAVMLRGFIELYQLDQNKTFIDAFNQCLSYAWDNARDENGLFSTDLTGNNNNEKKWLLTQAAMVEMYSRLATIQLEHHHHHH”, the “soluble on expression in E. coli” value is “soluble”.

For the sequence “MAGDPMNDVSKASLPKAIFLMGPTASGKTALAIELRKVLPVELISVDSALIYRGMDIGTAKPNADELKAAPHRLLDIRDPSQAYSAADFRRDALAQMAEITAAGRIPLLVGGTMLYFKALLEGLSPLPSADPEVRSRIEQQAAELGWEALHQQLQEIDPVAAARIHPNDPQRLSRALEVFFISGKTLTELTQTSGDALPYQVHQFAIAPASRELLHQRIELRFHQMLASGFEAEVRALFARGDLHTDLPSIRCVGYRQMWSYIEGEISYDEMVYRGVCATRQLAKRQMTWLRGWEGVRWLDSENPDRARKEVLQVVGAIADLEHHHHHH”, the “soluble on expression in E. coli” value is listed as “soluble”. Turning to “MAGDPMNVEGMATGGIHMELHCPQCQHVLDQDNGHARCRSCGEFIEMKALCPDCHQPLQVLKACGAVDYFCQHGHGLISKKRVEFVLALEHHHHHH”, the “soluble on expression in E. coli” value is “not soluble”. To “MAGETDLQKILRESNDQFTAQMFSEVVKANPGQNVVLSAFSVLPPLGQLALASVGESHDELLRALALPNDNVTKDVFADLNRGVRAVKGVDLKMASKIYVAKGLELNDDFAAVSRDVFGSEVQNVDFVKSVEAAGAINKWVEDQTNNRIKNLVDPDALDETTRSVLVNAIYFKGSWKDKFVKERTMDRDFHVSKDKTIKVPTMIGKKDVRYADVPELDAKMIEMSYEGDQASMIIILPNQVDGITALEQKLKDPKALSRAEERLYNTEVEITLPKFKIETTTDLKEVLSNMNIKKLFTPGAARLENLLKTKESLTVDAAIQKAFIEVNEEGAEAAAANAFGIVPKSLILYPEVHIDRPFYFELKIDGIPMFNGKVIEP” belongs “soluble”; to “MAGFAVNLKVVLNSDAVFGTACKRGGGAPETCLLEDMGLEREDIEPFGYEKDKDREILVWHTKTSTPNIVKSNKNSTKKAPPPDTFGYFVEA”, “not soluble”. On to “MAGLKYEDAGVNIEAGNQAVERMKQHVKKTFTQDVLTGLGSFGSLYSLKNIINNYDDPVLVQSIDGVGTKTKVAVMCGKFENLGYDLFSAATNDIVVMGAKPITFLDYVAHDKLDPAIMEELVKGMSKACAECGVSLVGGETAEMPGVYQAGEIDMVGVITGIVDRKRIINGENIKEGDIVFGLSSSGLHTNGYSFARKLFFDVAGNKHTDTYPELEGKTIGDVLLEPHINYTNIIHDFLDNGVDIKGMAHITGGGFIENIPRVLPQGLGAQIDKDSFATPAIFKLMQRIGDISEFEMYRSFNMGIGMTIIASQDQFDKMQELAKKHTNTKLYQIGKITNSGKVEII”, for which the “soluble on expression in E. coli” value is reported as “soluble”. Regarding “MAGNSIGQFFRVTTFGESHGIALGCIIDGVPPGIPITEADIQLDLDRRRPGTSRYTTQRRELDQVRILSGVFEGVTTGTSIGLMIENTDQRSQDYSAIKDVFRPGHADYTYEQKYGVRDYRGGGRSSARETAMRVAAGAIAKKYLAQKFGVQVRGYLAQMGDVSCDLLDWDLVEQNPFFCPDASKLEPLDALMRELKKAGDSIGAKITVVAENVPVGLGEPVFDRLDADLAHALMSINAVKGVEIGDGFAVVTKRGSENRDEITPQGFQSNHAGGILGGISSGQPVVAHIALKPTSSIMVPGQTINRQGEAVEMVTRGRHDPCVGIRAVPIAEAMMAIVLMDHLLRQRAQCGDVASDVPRW”, the “soluble on expression in E. coli” value is given as “not soluble”. To “MAGQISPTRSALLASKASLKTANGGADLLKRKRDALIGEFFALVKDALAAREQLSSVSKGAYTSLFGAKAWDSPEAVESLSLAGTGDYAVDMQIESIYGVKVPKINIPERAAQADFSPINVGARTIQASNDFGGVLEAIVKVAATETKLRRIGEEIKKTSRRVNALEQVVIPGIHDDIRFIRSVLDQREREAGYTQKKIKAKIEGKNKEAREAAAATSHGSAADAAALEHHHHHH” belongs “not soluble”; to “MAGQLTFKRELEKVFEKELKKRIERIGKTPLSPLSLILFTRIAELSAIENGYIRPTEYEMREIFAARTTYSEGLLSTLKDIIYSHFLRSNLGEHLEDFIYTLQRIEDIQSKIDELILREMREVSLRKVYHELLRFLLDMLCDKDMVRFD”, “not soluble”. The entry for “MAGRVKWVTDIEKSVLINNFEKRGWIQVTENEDWNFYWMSVQTIRNVFSVETGYRLSDDQIVNHFPNHYELTRKDLMVKNIKRYRKELEKEGSPLAEKDENGKYLYLDFVPVTYMLPADYNLFVEEFRKSPSSTWIMKPCGKAQGKGIFLINKLSQIKKWSRDSKTSSFVSQSTKEAYVISVYINNPLLIGGRKFDLRLYVLVSTYRPLRCYMYKLGFCRFCTVKYTPSTSELDNMFVHLTNVAIQKHGEDYNHIHGGKWTVNNLRLYLESTRGREVTSKLFDEIHWIIVQSLKAVAPVMNNDKHCFECYGYDIIIDDKLKPWLIEVNASPSLTSSTANDRILKYNLINDTLNIAVPNGEIPDCKWNKSPPKEVLGNYEILYDEELAQGDGAERELRNRPGQPVGPRAGRSRDSGRSVLTTWK” is “not soluble”; for “MAGSKKSNRREEILQALAQMLESAEGASRITTAKLAKQVGVSEAALYRHFPSKARMFEGLIEFIEEALMTRINRILDDEKDTLERIRMVMHLILAFSERNPGLTRILSGHALMFENERLRERINQLFERIETQLRQILRERKIREGKSFPVEERILAAQILGQVEGSLNRFVRSDFKYQPTANFDEYWALLSAQIK” it is “not soluble”; for “MAHDWEKVLLSPDTPAESALRVLDDSGLRLVLVVDEQRRLLGTLTDGDVRRALLRHVNFMTAAVADIMHREPRVALASASREQLRHLMEQHSLLHIPLLDHDDRVVGLETYQEVLQRPRRDNWVFLMAGGFGKRLRPLTDNCPKPMLLVGGKPMLQTILEGFIAAGFHRFYISVHYLPETIKNYFGDGSKWGVTIVYIEEDQPLGTGGALGLLPGTDDLPIIMMNGDILTRLDFNALLDFHEKHAADLTLCVREYDVQIPFGVVEGNDVTVTSIVEKPKHRFFVNAGIYVVTPQAIARVLPSMRVDMPDLIKQIIADQRNVSMFPIREYWLDIGRPEDFDVAQTSIAQLEHHHHHH” it is “not soluble”.
